Legend:
[1] = molecular target: β-site APP-cleaving enzyme 1 (BACE1) (UniProt P56817)
[2] = molecular target: BACE1 extracellular domain (human, UniProt P56817 46-457); assay: indirect ELISA (plate-coated BACE1); ELISA: BACE1 coated in 1x PBS, 5% BSA block, PBST (0.01% Tween 20, pH 7.4) wash, aptamer 60 min at 37 C; SELEX binding buffer: 1x PBS, 5 mM MgCl2, 0.45% glucose, tRNA, salmon sperm DNA, BSA; FRET: kit Fluorescent Assay Buffer, 37 C, 4 h; settings: protein: commercial; predicted stem-loop
Chain of BACE1 extracellular domain (P56817 46-457): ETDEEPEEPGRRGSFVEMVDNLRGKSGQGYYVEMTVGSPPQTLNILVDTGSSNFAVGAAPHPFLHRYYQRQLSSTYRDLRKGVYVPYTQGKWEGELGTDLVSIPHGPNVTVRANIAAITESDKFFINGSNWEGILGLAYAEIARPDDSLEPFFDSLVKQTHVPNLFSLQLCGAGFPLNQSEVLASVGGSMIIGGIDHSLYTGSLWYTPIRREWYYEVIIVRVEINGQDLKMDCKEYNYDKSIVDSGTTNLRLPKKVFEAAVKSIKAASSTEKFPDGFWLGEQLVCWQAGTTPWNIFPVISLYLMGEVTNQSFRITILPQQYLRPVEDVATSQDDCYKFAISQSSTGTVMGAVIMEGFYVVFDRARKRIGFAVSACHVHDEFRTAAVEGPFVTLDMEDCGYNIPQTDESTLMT

Chain of β-site APP-cleaving enzyme 1 (BACE1) (P56817 46-501): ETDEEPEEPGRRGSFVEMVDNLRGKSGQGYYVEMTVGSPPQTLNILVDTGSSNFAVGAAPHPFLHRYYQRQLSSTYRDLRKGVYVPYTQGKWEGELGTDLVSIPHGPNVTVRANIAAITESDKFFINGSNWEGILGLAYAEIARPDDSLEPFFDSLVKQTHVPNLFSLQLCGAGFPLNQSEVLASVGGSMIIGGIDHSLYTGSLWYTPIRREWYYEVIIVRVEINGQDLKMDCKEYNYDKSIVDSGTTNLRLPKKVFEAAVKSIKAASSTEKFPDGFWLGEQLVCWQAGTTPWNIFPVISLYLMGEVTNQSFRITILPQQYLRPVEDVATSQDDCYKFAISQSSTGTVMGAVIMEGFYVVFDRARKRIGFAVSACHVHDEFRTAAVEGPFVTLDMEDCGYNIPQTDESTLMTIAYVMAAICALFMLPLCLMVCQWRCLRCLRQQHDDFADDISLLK

Molecule | IC50 of inhibition of BACE1 activity (cleavage of a fluorescent substrate, FRET assay of the BACE1 Activity Detection Kit, 4 h, 37°C) [1] | Kd [2]
[Asn670, Sta671, Val672]-Amyloid β/A4 Precursor Protein 770 Fragment 662–675 (from UniProt P05067 662-675) (peptide) | 242 nM | 
A1 (ssDNA) DNA: GCAATGGTACGGTACTTCCGTCATCAGCTTGTGATGTGGATGCGAACTGCAAAAGTGCACGCTACTTTGCTAA |  | 68.6 ± 8.12 nM
A4 (ssDNA) DNA: GCAATGGTACGGTACTTCCTGTGTTATTGTTATGTTTTTTCAGTGTAGTCAAAAGTGCACGCTACTTTGCTAA |  | 15.3 ± 2.03 nM

Source: paper PMC4608735, “Inhibition of BACE1 Activity by a DNA Aptamer in an Alzheimer’s Disease Cell Model”
